Data reported in US20240279310A1.
Read-outs that look alike come from different tables or passages of the source.

Key:
[1] = target: recombinant human APRIL (Tonbo Biosciences) (human) (UniProt O75888); experiment: cell-based or functional assay; set-up: IC50 APRIL (Δ TACI 30-110-Fc) / IC50 BAFF (Δ TACI 30-110-Fc): unit not given beside the values
[2] = target: recombinant human BAFF (BioLegend) (human) (UniProt Q9Y275); experiment: cell-based or functional assay; set-up: IC50 APRIL (Δ TACI 30-110-Fc) / IC50 BAFF (Δ TACI 30-110-Fc): unit not given beside the values
[3] = target: recombinant human APRIL (Tonbo Biosciences) (human) (UniProt O75888); experiment: cell-based or functional assay
[4] = target: recombinant human BAFF (BioLegend) (human) (UniProt Q9Y275); experiment: cell-based or functional assay
[5] = target: recombinant human APRIL (Tonbo Biosciences) (human) (UniProt O75888); experiment: cell-based or functional assay; set-up: IC50 APRIL (Δ TACI 30-110) / IC50 BAFF (Δ TACI 30-110): unit not given beside the values
[6] = target: recombinant human BAFF (BioLegend) (human) (UniProt Q9Y275); experiment: cell-based or functional assay; set-up: IC50 APRIL (Δ TACI 30-110) / IC50 BAFF (Δ TACI 30-110): unit not given beside the values
[7] = target: recombinant human BAFF (BioLegend) (human) (UniProt Q9Y275)
[8] = target: APRIL+BAFF (15 nM APRIL+10 nM BAFF) in combination; experiment: cell-based or functional assay

TACI 13-118-Fc (WT TACI 13-118, SEQ ID NO:131, fused to the Fc of SEQ ID NO: 73) (Fc fusion), sequence (chain): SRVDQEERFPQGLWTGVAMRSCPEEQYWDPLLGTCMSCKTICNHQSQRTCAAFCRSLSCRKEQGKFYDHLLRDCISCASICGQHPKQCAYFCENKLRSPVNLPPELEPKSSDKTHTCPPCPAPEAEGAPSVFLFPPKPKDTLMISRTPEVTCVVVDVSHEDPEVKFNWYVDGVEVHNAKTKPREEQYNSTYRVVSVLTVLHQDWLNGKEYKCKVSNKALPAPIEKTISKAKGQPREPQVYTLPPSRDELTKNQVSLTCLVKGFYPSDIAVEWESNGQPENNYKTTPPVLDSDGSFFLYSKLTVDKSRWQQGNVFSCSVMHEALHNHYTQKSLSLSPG
recombinant human APRIL (Tonbo Biosciences) (human), sequence (O75888 105-250 limits assumed): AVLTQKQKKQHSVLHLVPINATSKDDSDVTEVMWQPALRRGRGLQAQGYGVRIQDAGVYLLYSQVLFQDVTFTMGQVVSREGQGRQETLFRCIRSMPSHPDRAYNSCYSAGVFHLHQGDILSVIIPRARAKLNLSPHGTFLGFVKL
TACI 30-110-Fc (WT TACI 30-110, SEQ ID NO:130, fused to the Fc of SEQ ID NO: 73) (Fc fusion), sequence (chain): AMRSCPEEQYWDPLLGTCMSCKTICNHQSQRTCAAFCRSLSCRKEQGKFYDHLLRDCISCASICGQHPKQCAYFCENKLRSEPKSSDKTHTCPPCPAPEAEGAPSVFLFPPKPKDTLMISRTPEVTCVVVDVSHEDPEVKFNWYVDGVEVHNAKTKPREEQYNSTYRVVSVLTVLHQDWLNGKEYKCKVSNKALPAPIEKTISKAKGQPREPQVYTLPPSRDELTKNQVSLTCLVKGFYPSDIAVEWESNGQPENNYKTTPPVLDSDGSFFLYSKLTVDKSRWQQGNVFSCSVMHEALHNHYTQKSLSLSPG
Telitacicept/Tai'ai (RemeGen) (Fc fusion), sequence (chain): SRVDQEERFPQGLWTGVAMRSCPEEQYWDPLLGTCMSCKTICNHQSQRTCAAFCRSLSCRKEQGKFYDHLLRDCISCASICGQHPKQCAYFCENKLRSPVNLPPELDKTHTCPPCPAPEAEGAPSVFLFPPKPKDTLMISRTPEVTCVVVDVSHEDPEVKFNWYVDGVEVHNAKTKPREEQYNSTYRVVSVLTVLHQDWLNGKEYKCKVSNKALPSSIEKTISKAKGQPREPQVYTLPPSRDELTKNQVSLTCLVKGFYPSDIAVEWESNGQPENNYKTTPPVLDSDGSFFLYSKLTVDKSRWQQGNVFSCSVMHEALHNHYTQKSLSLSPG

Substance | APRIL IC50 (pM) [3] | APRIL IC50 (Δ WT) [3] | BAFF IC50 (pM) [4] | BAFF IC50 (Δ WT) [4] | other results
27 TACI CRD2-Fc (TACI vTD SEQ ID NO:27, Q75E/R84Q) (Fc fusion) | 11800 pM | 0.96 | 1460 pM | 0.79 | IC50 (nM) APRIL [1]: 262 nM; IC50 APRIL (Δ TACI 30-110-Fc) [1]: 0.07; IC50 (nM) BAFF [2]: 1390 nM; IC50 BAFF (Δ TACI 30-110-Fc) [2]: 0.24
29 TACI CRD2-Fc (TACI vTD SEQ ID NO:29, K77E/A101D/Y102D) (Fc fusion) | 2910 pM | 0.24 | 1180 pM | 0.64 | IC50 (nM) APRIL [1]: 339 nM; IC50 APRIL (Δ TACI 30-110-Fc) [1]: 0.09; IC50 (nM) BAFF [2]: 1340 nM; IC50 BAFF (Δ TACI 30-110-Fc) [2]: 0.23
TACI 13-118, with K77E/F78Y/Y102D, fused to the Fc of SEQ ID NO:73 (Fc fusion) | 13200 pM | 1.07 | 1990 pM | 1.07 | IC50 (nM) APRIL [5]: 848 nM; IC50 APRIL (Δ TACI 30-110) [5]: 0.2; IC50 (nM) BAFF [6]: 2050 nM; IC50 BAFF (Δ TACI 30-110) [6]: 0.46
TACI 13-118-Fc (WT TACI 13-118, SEQ ID NO:131, fused to the Fc of SEQ ID NO: 73) (Fc fusion) | – | – | 7900 pM | 4.26 | IC50 (nM) APRIL [1]: 9100 nM; IC50 APRIL (Δ TACI 30-110-Fc) [1]: 2.37; IC50 (nM) BAFF [2]: 7700 nM; IC50 BAFF (Δ TACI 30-110-Fc) [2]: 1.33; IC50 (nM) APRIL [5]: 7810 nM; IC50 APRIL (Δ TACI 30-110) [5]: 1.81; IC50 (nM) BAFF [6]: 8450 nM; IC50 BAFF (Δ TACI 30-110) [6]: 1.88
TACI 30-110-Fc (WT TACI 30-110, SEQ ID NO:130, fused to the Fc of SEQ ID NO: 73) (Fc fusion) | – | – | – | – | IC50 (nM) APRIL [1]: 3850 nM; IC50 APRIL (Δ TACI 30-110-Fc) [1]: 1; IC50 (nM) BAFF [2]: 5770 nM; IC50 BAFF (Δ TACI 30-110-Fc) [2]: 1; IC50 (nM) APRIL [5]: 4320 nM; IC50 APRIL (Δ TACI 30-110) [5]: 1; IC50 (nM) BAFF [6]: 4490 nM; IC50 BAFF (Δ TACI 30-110) [6]: 1
TACI vTD-Fc with the vTD of SEQ ID NO: 23 (A101D) (Fc fusion) | 8380 pM | 0.68 | 1830 pM | 0.99 | –
TACI vTD-Fc with the vTD of SEQ ID NO: 25 (K77E, A101D) (Fc fusion) | 2040 pM | 0.17 | 1960 pM | 1.06 | –
TACI vTD-Fc with the vTD of SEQ ID NO: 177 (Q75E) (Fc fusion) | 1940 pM | 0.16 | 1460 pM | 0.79 | –
TACI vTD-Fc with the vTD of SEQ ID NO: 178 (Q75E, K77E) (Fc fusion) | 10700 pM | 0.87 | 1890 pM | 1.02 | –
TACI vTD-Fc with the vTD of SEQ ID NO: 182 (K77E, F78Y, R84Q) (Fc fusion) | 10100 pM | 0.82 | 2210 pM | 1.19 | –
TACI vTD-Fc with the vTD of SEQ ID NO: 186 (F78Y, Y102D) (Fc fusion) | 8490 pM | 0.69 | 1960 pM | 1.06 | –
TACI vTD-Fc with the vTD of SEQ ID NO: 190 (Y102D) (Fc fusion) | 11600 pM | 0.94 | 1860 pM | 1 | –
TACI vTD-Fc with the vTD of SEQ ID NO: 191 (K77E, F78Y) (Fc fusion) | 10100 pM | 0.82 | 1970 pM | 1.06 | –
TACI vTD-Fc with the vTD of SEQ ID NO: 192 (K77E, Y102D) (Fc fusion) | 891 pM | 0.07 | 2180 pM | 1.17 | –
Telitacicept/Tai'ai (RemeGen) (Fc fusion) | – | – | – | – | IC50 (pM) BAFF + APRIL [8]: 16800 pM

Second part, led by results:

APRIL IC50 (pM) [3] | APRIL IC50 (Δ WT) [3] | BAFF IC50 (pM) [4] | BAFF IC50 (Δ WT) [4] | Substance | other results
– | – | 53200 pM | 28.7 | BAFF-R ECD (control) (receptor) | –
4260 pM | 0.35 | 2260 pM | 1.22 | TACI vTD-Fc with the vTD of SEQ ID NO: 24 (K77E, R84Q) (Fc fusion) | –
566 pM | 0.05 | 5490 pM | 2.96 | TACI vTD-Fc with the vTD of SEQ ID NO: 30 (R84Q) (Fc fusion) | IC50 (read off the curve) [7]: 0.001 µM
159 pM | 0.01 | 1540 pM | 0.83 | TACI vTD-Fc with the vTD of SEQ ID NO: 32 (K77E) (Fc fusion) | –
13400 pM | 1.09 | 1790 pM | 0.97 | TACI vTD-Fc with the vTD of SEQ ID NO: 179 (Q75E, F78Y) (Fc fusion) | –
20000 pM | 1.62 | 2360 pM | 1.27 | TACI vTD-Fc with the vTD of SEQ ID NO: 180 (Q75E, A101D) (Fc fusion) | –
11100 pM | 0.9 | 2150 pM | 1.16 | TACI vTD-Fc with the vTD of SEQ ID NO: 181 (Q75E, Y102D) (Fc fusion) | –
176 pM | 0.01 | 1640 pM | 0.88 | TACI vTD-Fc with the vTD of SEQ ID NO: 183 (F78Y) (Fc fusion) | –
2620 pM | 0.21 | 2260 pM | 1.22 | TACI vTD-Fc with the vTD of SEQ ID NO: 184 (F78Y, R84Q) (Fc fusion) | –
2020 pM | 0.16 | 1850 pM | 1 | TACI vTD-Fc with the vTD of SEQ ID NO: 185 (F78Y, A101D) (Fc fusion) | –
11200 pM | 0.91 | 2350 pM | 1.27 | TACI vTD-Fc with the vTD of SEQ ID NO: 187 (R84Q, A101D) (Fc fusion) | –
12300 pM | 1 | 1860 pM | 1.01 | TACI vTD-Fc with the vTD of SEQ ID NO: 188 (R84Q, Y102D) (Fc fusion) | –
33600 pM | 2.72 | 1950 pM | 1.05 | TACI vTD-Fc with the vTD of SEQ ID NO: 189 (A101D, Y102D) (Fc fusion) | –
